{"source": "paper PMC2994726", "about": "(PLoS ONE, 2010)", "assay_in_all_cases": "radioligand binding; whole-cell heterologous competition on transfected COS-7 cells: 1 nM 3H-Ang II tracer and increasing unlabeled SII Ang II, 3 h at 4°C; pKi calculated from Ang II KD values of experiments run in parallel", "settings_in_all_cases": "one partner purified", "key": {"[1]": {"target": "T1, FLAG-tagged rat AT1a receptor D74N, full length (rat, UniProt P25095 1-359, D74N)", "T1 construct": "Angiotensin II type 1a receptor (AT1aR), rat, full length; also called D74N (2.50); source: COS-7, transiently transfected, on whole cells; not shown: FLAG, N-terminal, kept", "T1 sequence (looked up)": "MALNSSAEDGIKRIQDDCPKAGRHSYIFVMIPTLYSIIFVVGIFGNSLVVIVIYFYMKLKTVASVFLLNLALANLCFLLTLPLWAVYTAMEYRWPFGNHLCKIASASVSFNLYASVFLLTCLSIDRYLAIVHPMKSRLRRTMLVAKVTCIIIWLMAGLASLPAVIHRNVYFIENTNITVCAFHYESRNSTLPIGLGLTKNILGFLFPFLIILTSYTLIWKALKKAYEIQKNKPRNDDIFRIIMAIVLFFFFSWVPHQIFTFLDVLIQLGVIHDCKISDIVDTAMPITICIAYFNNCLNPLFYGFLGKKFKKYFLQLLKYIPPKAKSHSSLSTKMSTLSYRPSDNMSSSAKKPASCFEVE"}, "[2]": {"target": "T2, FLAG-tagged rat AT1a receptor N298A truncated after serine 331 (N298A 331Δ) (rat, UniProt P25095 1-331, N298A)", "T2 construct": "source: COS-7, transiently transfected, on whole cells; not shown: FLAG, N-terminal, kept", "T2 sequence (looked up)": "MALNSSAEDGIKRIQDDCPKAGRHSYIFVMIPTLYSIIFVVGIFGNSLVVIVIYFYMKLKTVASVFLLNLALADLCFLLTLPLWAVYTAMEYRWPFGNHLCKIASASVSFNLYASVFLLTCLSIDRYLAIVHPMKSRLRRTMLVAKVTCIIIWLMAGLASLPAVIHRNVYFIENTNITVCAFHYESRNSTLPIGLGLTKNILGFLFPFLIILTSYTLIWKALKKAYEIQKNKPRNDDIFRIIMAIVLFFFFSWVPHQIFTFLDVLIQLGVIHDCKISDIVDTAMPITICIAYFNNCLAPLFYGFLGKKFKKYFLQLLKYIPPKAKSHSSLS"}, "[3]": {"target": "T3, FLAG-tagged rat AT1a receptor N298A, full length (rat, UniProt P25095 1-359, N298A)", "T3 construct": "Angiotensin II type 1a receptor (AT1aR), rat, full length; also called N298A (7.49); source: COS-7, transiently transfected, on whole cells; not shown: FLAG, N-terminal, kept", "T3 sequence (looked up)": "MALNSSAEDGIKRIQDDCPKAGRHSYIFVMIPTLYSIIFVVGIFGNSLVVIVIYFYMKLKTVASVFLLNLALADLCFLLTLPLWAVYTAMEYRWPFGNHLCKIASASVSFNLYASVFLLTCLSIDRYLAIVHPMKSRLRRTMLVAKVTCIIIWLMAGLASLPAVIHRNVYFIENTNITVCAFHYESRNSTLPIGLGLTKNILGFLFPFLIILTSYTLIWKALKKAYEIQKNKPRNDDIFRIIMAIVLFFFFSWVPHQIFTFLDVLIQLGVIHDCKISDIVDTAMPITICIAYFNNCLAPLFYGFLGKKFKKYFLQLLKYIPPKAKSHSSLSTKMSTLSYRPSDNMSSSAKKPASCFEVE"}, "[4]": {"target": "T4, FLAG-tagged rat AT1a receptor D74N truncated after serine 331 (D74N 331Δ) (rat, UniProt P25095 1-331, D74N)", "T4 construct": "source: COS-7, transiently transfected, on whole cells; not shown: FLAG, N-terminal, kept", "T4 sequence (looked up)": "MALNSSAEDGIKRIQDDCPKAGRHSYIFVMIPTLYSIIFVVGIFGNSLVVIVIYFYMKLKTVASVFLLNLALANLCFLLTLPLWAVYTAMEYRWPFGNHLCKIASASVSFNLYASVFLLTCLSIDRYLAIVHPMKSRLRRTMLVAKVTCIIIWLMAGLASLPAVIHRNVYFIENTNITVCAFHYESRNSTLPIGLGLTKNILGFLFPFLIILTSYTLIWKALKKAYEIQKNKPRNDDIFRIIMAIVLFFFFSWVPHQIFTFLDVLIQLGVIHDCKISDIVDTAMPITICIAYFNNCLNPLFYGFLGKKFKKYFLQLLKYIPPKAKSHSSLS"}}, "data": [{"binder": "GRVIIHPI (sarcosine at position 1 (Sar1))", "note": "[Sar1-Ile4-Ile8 (SII) Ang II]", "values": [{"measurement": "pKi", "setting": "[1]", "result": 6.6}, {"measurement": "pKi", "setting": "[2]", "result": 6.2}, {"measurement": "pKi", "setting": "[3]", "result": 6.2}, {"measurement": "pKi", "setting": "[4]", "result": 6.8}]}]}
